# Test results published in patent US6835382B2, “Ii peptide therapeutics to enhance antigen presentation” (University of Massachusetts, priority 1996, dated 2004).
# Non-standard residues stand in square brackets, D forms with d. hArg = N=C(N)NCCCC[C@H](N)C(=O)O; Cit = NC(=O)NCCC[C@H](N)C(=O)O
# Target: T1, murine E^d MHC class II allele (Mus musculus, UniProt P01904+P01915)
# T1 sequence (P01904 26-255): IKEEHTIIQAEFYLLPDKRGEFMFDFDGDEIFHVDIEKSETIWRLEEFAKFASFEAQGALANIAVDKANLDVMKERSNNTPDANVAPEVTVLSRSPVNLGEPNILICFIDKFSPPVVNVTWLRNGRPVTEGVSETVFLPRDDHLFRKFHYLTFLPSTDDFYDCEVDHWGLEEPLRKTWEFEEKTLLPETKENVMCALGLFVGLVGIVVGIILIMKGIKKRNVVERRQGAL
# T1 sequence (P01915 27-264 limits assumed): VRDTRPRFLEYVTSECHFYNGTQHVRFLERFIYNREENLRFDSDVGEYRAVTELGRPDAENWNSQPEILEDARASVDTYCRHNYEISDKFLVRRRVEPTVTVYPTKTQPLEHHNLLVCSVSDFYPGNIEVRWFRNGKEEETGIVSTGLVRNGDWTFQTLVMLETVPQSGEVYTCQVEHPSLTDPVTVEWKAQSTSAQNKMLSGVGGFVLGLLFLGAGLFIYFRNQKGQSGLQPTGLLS
# Assay: antigenic peptide prepulse assay, E^d allele (fixed APC prepulsed with HEL106-116)
# Format: cell-based
# Design: The A20 and CH27 B cell lymphoma lines express H-2^d and H-2^k alleles, respectively; endogenous in cells; host or cells: A20 B cell lymphoma (mitomycin C-treated or paraformaldehyde-fixed)
# Settings: for Activity in antigenic peptide prepulse assay, E^d (baseline = 1): Table 23, as printed: antigenic peptide prepulse 64 μM, AE peptide 1:4 μM; for T cell response relative to baseline without AE peptide (None = 1.0), E^d: Table 27, antigenic peptide prepulse 24 μM, AE101 series peptide 64 μM, HT-2 supernatant dilution 1:8
# Procedure: In a second type of assay, the “peptide prepulse assay”, the antigenic peptide is incubated with paraformaldehyde-fixed APC for 6 h. The APC are washed and incubated for 24 h with the AE101 series homolog and the T cell hybridoma specific for the antigenic peptide. After that incubation, an aliquot of the culture supernatant is transferred to a second culture to measure the relative degree of T hybridoma stimulation, as reflected in the effect of released interleukins on the growth of an interleukin-dependent, indicator cell line, as described above.
# The two above described assays measure different aspects of the molecular mechanism of the AE101 series of peptides. In the “simultaneous assay”, AE101 series peptides are thought to induce the release of endogenously bound peptides and to permit the binding of the second, specific antigenic peptide which is relatively abundant in the culture fluid. The AE101 series peptides enhance antigenic peptide-specific T cell responses in simultaneous assays. In the “peptide prepulse” assay, the specific antigenic peptide becomes bound to MHC class II molecules on the surface of the fixed APC during the 6 h prepulse incubation. The effect of the AE101 series homologs is then thought to release that antigenic peptide, resulting in an apparent suppression of the immune response.
# The AE101 series peptides are thought to contact the MHC class II molecules at a discrete site outside the antigenic peptide-binding groove. AE101 peptide binding to this “Ii-KEY” site is thought to induce a conformational change in the MHC class II molecules accelerating the dissociation of previously bound antigenic peptide. […] The AE101 series peptides thus inhibit antigenic peptide-specific T cell responses in the “peptide prepulse” assays.
# Antigenic peptide-specific T cell activation was measured by the following procedure. Mitomycin C-treated A20 cells (A^dE^d) or CH27 cells APC (A^kE^k) were generated by incubating 5×10^6 cells/mL for 20 min at 37° C. with 0.025 mg/mL of mitomycin C (Sigma) in Dulbecco's Modified Eaglel's Medium (DMEM)/10 mM N-2(hydroxyethylpiperazine-N″[2-ethanesulfonic acid] (HEPES), followed by two washes with four volumes of DMEM-5% fetal calf serum (FCS), 10 mM HEPES. Fixed APC were generated by treating 1×10^6 cells/mL for 5 min with 0.5% paraformaldehyde in PBS (pH 7.2), followed by two washes with four volumes of DMEM-10% FCS, 10 mM HEPES. T cell hybridomas were irradiated 2200 rads before each assay.
# The “peptide prepulse assay” was carried out under essentially the same conditions as described for the “simultaneous assay” with the following modifications. Fixed APC were first incubated for 6 h at 1×10^6 cells/mL in complete DMEM-5% FCS in 24-well microculture plates (1 mL/well) with antigenic peptide, followed by four washes with 10 volumes of DMEM-5% FCS. The cells were then exposed to varying concentrations of AE101 series peptide (64 μM, 16 μM, 4 μM, and 1 μM) for 24 h in the presence of the T cell hybridoma specific to the antigenic peptide. Interleukin release from these cultures was measured by proliferation of HT-2 cells to interleukins in supernatants transferred from the primary culture. Generally, a single dose of 64 μM of each AE101 series peptide was used. The baseline T cell response was measured by culturing T hybridoma cells with the antigenic peptide-prepulsed APC in the absence of AE101 series peptides.
# […] […] Paraformaldehyde-treated APC (fixed APC) expressing MHC class II molecules were incubated with antigenic peptide for 6 h (HEL106-116 for E^d and PGCC81-104 for E^k). After this incubation, the prepulsed APC were washed and cultured with T hybridoma cells and AE101 series peptides. […] The AE101 series peptide concentrations were 64 μM for E^d and 16 μM for E^k. The dilutions of supernatant taken into the HT-2 cell assay were 1:4 for Ed and 1:2 for E^k.
# [1] = Table 22, AE peptide 64 μM, prepulse 6 μM antigenic peptide, supernatant 1:8
# [2] = Table 25, AE peptide 64 μM, prepulse 24 μM antigenic peptide, supernatant 1:4
# [3] = Table 20, AE peptide 64 μM, prepulse 3 μM antigenic peptide, supernatant 1:2
# [4] = Table 24, AE peptide 64 μM, prepulse 24 μM antigenic peptide, supernatant 1:4
# [5] = Table 26, AE peptide 64 μM, prepulse 24 μM antigenic peptide, supernatant 1:2
# [6] = Table 28, AE peptide 64 μM, prepulse 24 μM antigenic peptide, supernatant 1:4
substance,measurement,setting,value
Ac-L r MKLPK-NH2 [AE161],"Activity in antigenic peptide prepulse assay, E^d (baseline = 1.00)",[1],0.30
Ac-LRNKNPK-NH2 [AE349],"Activity in antigenic peptide prepulse assay, E^d (baseline = 1.00)",[2],0.69
Ac-Y Y MKLPKSAK-NH2 [AE140],"Activity in antigenic peptide prepulse assay, E^d (baseline = 1.00)",[3],0.78
YRMKLPKSAKPVSQMR [AE101],"Activity in antigenic peptide prepulse assay, E^d (baseline = 1.00)",[3],0.25
Ac-LRMKLP F-NH2 (Ac-LRMKLPF-NH2) [AE248],"Activity in antigenic peptide prepulse assay, E^d (baseline = 1.00)",[2],0.63
Ac-YAMKLPKSAK-NH2 [AE121],"Activity in antigenic peptide prepulse assay, E^d (baseline = 1.00)",[3],0.53
Ac-Y[Cit]MKLPKSAK-NH2 [AE131],"Activity in antigenic peptide prepulse assay, E^d (baseline = 1.00)",[3],0.69
same,"Activity in antigenic peptide prepulse assay, E^d (baseline = 1.00)",[2],0.61
Ac-LR (mL) KyPK-NH2 [AE304],"Activity in antigenic peptide prepulse assay, E^d (baseline = 1.00)",[4],0.78
Ac- (mL) RMKLPK-NH2 [AE174],"Activity in antigenic peptide prepulse assay, E^d (baseline = 1)",supernatant 1:8,0.6
same,"Activity in antigenic peptide prepulse assay, E^d (baseline = 1.00)",[4],0.60
Ac-LR HArg KLPK-NH2 [AE197],"Activity in antigenic peptide prepulse assay, E^d (baseline = 1.0)",[5],0.32
Ac-YRMKL hydrP KSAK-NH2 (Ac-YRMKL[hydrP]KSAK-NH2) [AE143],"Activity in antigenic peptide prepulse assay, E^d (baseline = 1.00)","Table 21, AE peptide 64 μM, prepulse 24 μM antigenic peptide, supernatant 1:8",0.18
Ac-LRLKYPk-NH2 [AE307],"Activity in antigenic peptide prepulse assay, E^d (baseline = 1.00)",[4],0.59
Ac-YRM-NH2 [AE118],"Activity in antigenic peptide prepulse assay, E^d (baseline without AE peptide = 1.00)","Table 19, AE peptide 64 μM, prepulse 12 μM HEL106-116, supernatant 1:4",0.68
Ac-LRMKLP k-NH2 [AE166],"Activity in antigenic peptide prepulse assay, E^d (baseline = 1.00)",[1],0.11
same,"Activity in antigenic peptide prepulse assay, E^d (baseline = 1.00)",[4],0.65
Ac-LR L KLPK-NH2 (Ac-LRLKLPK-NH2; not fully specified; printed as Ac-LR L KLPK-NH2) [AE206],"Activity in antigenic peptide prepulse assay, E^d (baseline = 1.00)",[4],0.52
same,"Activity in antigenic peptide prepulse assay, E^d (baseline = 1.00)",[2],0.18
same,"Activity in antigenic peptide prepulse assay, E^d (baseline = 1.0)",[5],0.38
Ac-LRMK Y PK-NH2 (Ac-LRMKYPK-NH2; not fully specified; printed as Ac-LRMK Y PK-NH2) [AE235],"Activity in antigenic peptide prepulse assay, E^d (baseline = 1.00)",[4],0.30
same,"Activity in antigenic peptide prepulse assay, E^d (baseline = 1.00)",[2],0.25
same,"Activity in antigenic peptide prepulse assay, E^d (baseline = 1.0)",[5],0.23
same,"T cell response relative to baseline without AE peptide (None = 1.0), E^d",,0.40
same,"Activity in antigenic peptide prepulse assay, E^d (baseline = 1.0)",[6],0.30
Ac-LRMK N PK-NH2 (Ac-LRMKNPK-NH2) [AE232],"Activity in antigenic peptide prepulse assay, E^d (baseline = 1.00)",[2],0.44
Ac-Y N MKLPKSAK-NH2 [AE137],"Activity in antigenic peptide prepulse assay, E^d (baseline = 1.00)",[3],0.57
Ac-LRMK HArg PK-NH2 (Ac-LRMK[hArg]PK-NH2; SMILES CSCC[C@H](NC(=O)[C@H](CCCNC(=N)N)NC(=O)[C@H](CC(C)C)NC(C)=O)C(=O)N[C@@H](CCCCN)C(=O)N[C@@H](CCCCNC(=N)N)C(=O)N1CCC[C@H]1C(=O)N[C@@H](CCCCN)C(N)=O) [AE227],"Activity in antigenic peptide prepulse assay, E^d (baseline = 1.00)",[2],0.28
Ac-LRMKLPK-NH2 [AE114],"Activity in antigenic peptide prepulse assay, E^d (baseline = 1.00)",[1],0.02
same,"Activity in antigenic peptide prepulse assay, E^d (baseline = 1)",supernatant 1:8,0.41
same,"Activity in antigenic peptide prepulse assay, E^d (baseline = 1.00)",[4],0.41
same,"Activity in antigenic peptide prepulse assay, E^d (baseline = 1.00)",[2],0.31
same,"Activity in antigenic peptide prepulse assay, E^d (baseline = 1.0)",[5],0.28
same,"T cell response relative to baseline without AE peptide (None = 1.0), E^d",,0.32
same,"Activity in antigenic peptide prepulse assay, E^d (baseline = 1.0)",[6],0.41
Ac-Y E MKLPKSAK-NH2 [AE136],"Activity in antigenic peptide prepulse assay, E^d (baseline = 1.00)",[3],0.54
Ac-LRMKLP N-NH2 (Ac-LRMKLPN-NH2) [AE246],"Activity in antigenic peptide prepulse assay, E^d (baseline = 1.0)",[5],0.69
Ac-Y L MKLPKSAK-NH2 [AE142],"Activity in antigenic peptide prepulse assay, E^d (baseline = 1.00)",[3],0.86
Ac-LRNKNPF-NH2 [AE348],"Activity in antigenic peptide prepulse assay, E^d (baseline = 1.00)",[2],0.39
Ac-LRLK HArg PK-NH2 [AE341],"Activity in antigenic peptide prepulse assay, E^d (baseline = 1.00)",[2],0.12
Ac-Y M MKLPKSAK-NH2 [AE141],"Activity in antigenic peptide prepulse assay, E^d (baseline = 1.00)",[3],0.41
